Source: patent publication US20240207421A1, “NERVE TARGETING PEPTIDES AND METHODS OF USE” (ALUME BIOSCIENCES, INC., priority 2020, published 2024)

Tests used:
[1] = target: T1, Human Myelin Basic Protein (Homo sapiens, UniProt P02686); experiment: phage display, NGS count
[2] = target: T1, Human Myelin Basic Protein; experiment: phage display R3, NGS count
Human Nidogen-2 (human) = Human Nidogen-2 (human) (UniProt Q14112); experiment: phage display, NGS count
Human MPZ (human) [3] = target: Human MPZ (human) (UniProt P25189); experiment: phage display, NGS count
Sequence of Human MPZ (human) (P25189 30-153 limits assumed): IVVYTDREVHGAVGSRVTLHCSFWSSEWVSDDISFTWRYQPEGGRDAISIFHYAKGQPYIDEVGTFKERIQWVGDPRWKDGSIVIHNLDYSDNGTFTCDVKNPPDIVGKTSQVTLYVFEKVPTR

Human MPZ (human) [4] = target: Human MPZ (human) (UniProt P25189); experiment: phage display R3, NGS count
Human Myelin PLP [5] = experiment: Phage display library screening (Example 1, Power BI analysis), binding to Human Myelin PLP; conditions: R3 Myelin PLP, NextGen sequencing count of phage sequences distinct for this target
Description: Phage display library screens were used to identify peptides that bind to target proteins that are expressed in human nerves and could therefore be useful for systemic in-vivo labeling of nerves during fluorescence assisted surgery. Specifically, m13 phage libraries expressing 7 or 12 random amino acid peptides, or a cyclic peptide CX7C, on the N-terminus of the minor coat protein pIII (New England Biolabs) were processed through multiple rounds of selection for binding to target proteins expressed in peripheral nerve (Table 1).
(§1) The library was processed through up to 4 binding and wash cycles. For selection, phage libraries were incubated for up to 24 hours at 4° C. in 96 well plates that had been coated with one of the target proteins. Plates were then washed with PBS and phage were eluted using 0.2M glycine pH 2.0. Phage supernatants where then neutralized with Tris pH 9.0 prior to plating on TG1 bacteria and LB agar plates. Colonies were counted to determine titer followed by DNA preparation of pools of phage and NextGen sequencing. After rounds of selection, phage were pooled and amplified for iterative selection. Phage that were bound at each round were sequenced. NextGen sequencing of pools after 2, 3 and 4 rounds of selection was used to isolate candidate sequences that were analyzed further to identify those that specifically bound each unique target protein.
DNA sequences were trimmed of all vector amino acids and imported as a peptide dataset into Power BI. Power BI was used to identify phage display sequences for specific columns (corresponding to each target protein) in order to identify sequences that were distinct for each protein target. The Power BI code evaluated each individual sequence for each protein target against the sequences present in other protein targets in a test for uniqueness. Using the distinct flag, the Power BI code generated a filtered peptide dataset that excluded any peptide sequence that occur in more than one column which identified a specific protein target. This method therefore identified candidate peptide sequences showing selective binding to an individual target protein. Unique sequences in each column were sorted by individual counts such that the most selected sequences appeared at the top of the column.

Human Myelin PLP [6] = experiment: Phage display library screening (Example 2, Python script analysis), binding to Human Myelin PLP; conditions: combined unique sequence count, Python/R script analysis
Method: Phage display library screens were used to identify peptides that bind to target proteins (including specific laminin trimers) that are expressed in human nerves, as described in Table 3. These screens were also carried out to identify peptides that could bind selectively to nerves versus muscle. Such peptides could therefore be useful for systemic in-vivo labeling of nerves during fluorescence assisted surgery. Specifically, m 13 phage libraries expressing 7 or 12 random amino acid peptides, or a cyclic peptide CX7C, on the N-terminus of the minor coat protein pIII (New England Biolabs; NEB) were processed through multiple rounds of selection for binding to target proteins expressed in nerves, or to excised human nerves, nerve extracts, or muscle, as described further below.
as §1, with “For screening against the specified target proteins in Table 1, including LN211, LN411, LN421, and LN521, the phage” for “The”, “by” for “through”, “TGI” for “TG1”
Python Script Analysis: For all NEB sequence datasets, a python script was used to translate, trim, and filter the peptide sequences. The script translated the nucleotide sequences, translating amber codons as glutamine in peptide sequences, and then trimmed the end sequences that come from the vector. Secondly, the script combined the unique counts of trimmed peptides with identical sequences. […] Another python script was used to group peptides from different assays according to protein target (Myelin Protein Zero, Myelin Proteolipid Protein, Myelin Basic Protein, and Nidogen-2) and also combine the unique sequence counts for each peptide. An R script was written to merge the peptide sequences from different data files and determine peptides specific for each protein target but absent from different protein binding datasets. Peptide sequences were ranked by unique sequence count.

[7] = target: T1, Human Myelin Basic Protein; experiment: phage display R3, NGS count; remark: listed apart in the source

Sequence of Human Nidogen-2 (human) (Q14112 31-1375 limits assumed): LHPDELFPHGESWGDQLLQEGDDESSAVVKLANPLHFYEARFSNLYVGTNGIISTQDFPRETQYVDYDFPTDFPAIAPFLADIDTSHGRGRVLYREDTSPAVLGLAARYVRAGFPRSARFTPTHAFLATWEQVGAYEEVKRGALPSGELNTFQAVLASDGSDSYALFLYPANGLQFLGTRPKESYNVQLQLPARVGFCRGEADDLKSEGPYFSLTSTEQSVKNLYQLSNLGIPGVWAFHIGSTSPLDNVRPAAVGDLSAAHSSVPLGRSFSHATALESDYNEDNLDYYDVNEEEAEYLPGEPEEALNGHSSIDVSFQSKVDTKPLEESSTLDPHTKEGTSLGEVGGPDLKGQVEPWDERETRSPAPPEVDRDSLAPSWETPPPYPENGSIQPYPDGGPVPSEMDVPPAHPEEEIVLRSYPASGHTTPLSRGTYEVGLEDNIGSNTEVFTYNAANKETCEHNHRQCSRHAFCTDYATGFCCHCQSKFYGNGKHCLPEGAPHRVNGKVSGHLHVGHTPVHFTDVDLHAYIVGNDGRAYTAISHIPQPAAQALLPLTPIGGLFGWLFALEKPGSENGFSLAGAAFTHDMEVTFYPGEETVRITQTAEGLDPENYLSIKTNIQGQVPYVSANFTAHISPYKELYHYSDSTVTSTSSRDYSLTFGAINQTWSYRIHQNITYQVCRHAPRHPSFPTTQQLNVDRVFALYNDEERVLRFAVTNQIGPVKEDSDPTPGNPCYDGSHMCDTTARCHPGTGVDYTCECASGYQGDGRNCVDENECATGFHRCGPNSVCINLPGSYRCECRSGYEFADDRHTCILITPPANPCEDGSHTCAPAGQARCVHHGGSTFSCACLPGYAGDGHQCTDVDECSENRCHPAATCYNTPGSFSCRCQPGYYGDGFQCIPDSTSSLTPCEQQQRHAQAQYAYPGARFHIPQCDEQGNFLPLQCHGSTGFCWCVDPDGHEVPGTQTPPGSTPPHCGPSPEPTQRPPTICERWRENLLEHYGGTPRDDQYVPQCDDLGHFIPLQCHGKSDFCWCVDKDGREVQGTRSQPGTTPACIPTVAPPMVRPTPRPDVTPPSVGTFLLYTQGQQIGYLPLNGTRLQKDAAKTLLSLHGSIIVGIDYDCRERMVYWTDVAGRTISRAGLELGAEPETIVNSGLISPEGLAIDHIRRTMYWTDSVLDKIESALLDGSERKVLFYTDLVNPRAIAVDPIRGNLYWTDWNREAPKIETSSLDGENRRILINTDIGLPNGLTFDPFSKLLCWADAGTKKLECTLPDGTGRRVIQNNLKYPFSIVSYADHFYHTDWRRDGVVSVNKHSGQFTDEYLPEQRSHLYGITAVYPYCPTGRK
T1 sequence (P02686 135-304 limits assumed): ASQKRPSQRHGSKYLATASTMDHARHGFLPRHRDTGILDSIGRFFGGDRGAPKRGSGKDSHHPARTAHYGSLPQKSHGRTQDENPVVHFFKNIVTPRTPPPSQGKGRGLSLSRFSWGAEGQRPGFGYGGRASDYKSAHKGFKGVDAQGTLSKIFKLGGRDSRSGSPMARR

## HRLPWHH (peptide)
[1]
  Count: 10
[2]
  Count: 10

## QNTGLKW (peptide)
[1]
  Count: 11
[2]
  Count: 11

## ALYLPGR (peptide)
Human Nidogen-2 (human)
  Count: 7

## ARMAFSL (peptide)
Human Nidogen-2 (human)
  Count: 7

## DRNSVFW (peptide)
Human MPZ (human) [3]
  Count: 50
Human MPZ (human) [4]
  Count: 50

## LHITPEV (peptide)
Human Nidogen-2 (human)
  Count: 6

## EAMMHRN (peptide)
Human Nidogen-2 (human)
  Count: 6

## DGKNTSN (peptide)
[2]
  Count: 10

## IKPPYTH (peptide)
Human MPZ (human) [3]
  Count: 82
Human MPZ (human) [4]
  Count: 78

## LVHPFHG (peptide)
Human Nidogen-2 (human)
  Count: 8

## WTMKPNY (peptide)
[1]
  Count: 14
[2]
  Count: 13

## QLLESRT (peptide)
Human Nidogen-2 (human)
  Count: 6

## YNHTMMY (peptide)
Human Nidogen-2 (human)
  Count: 7

## LSSPLSL (peptide)
Human MPZ (human) [3]
  Count: 56
Human MPZ (human) [4]
  Count: 56

## NILSQVN (peptide)
Human Nidogen-2 (human)
  Count: 6

## HSRLPTP (peptide)
Human Nidogen-2 (human)
  Count: 13

## QMDAKHM (peptide)
Human Nidogen-2 (human)
  Count: 6

## ETTRNYG (peptide)
Human MPZ (human) [3]
  Count: 69
Human MPZ (human) [4]
  Count: 68

## DPWVMLR (peptide)
[1]
  Count: 11
[2]
  Count: 11

## ATYNMSQ (peptide)
Human Nidogen-2 (human)
  Count: 7

## TPWLPTI (peptide)
Human Nidogen-2 (human)
  Count: 7

## TSPWELR (peptide)
Human MPZ (human) [3]
  Count: 108
Human MPZ (human) [4]
  Count: 107

## TIASLLV (peptide)
Human Nidogen-2 (human)
  Count: 6

## GPLRMAT (peptide)
Human MPZ (human) [3]
  Count: 51
Human MPZ (human) [4]
  Count: 50

## GLRTMEP (peptide)
Human Nidogen-2 (human)
  Count: 7

## WPSISRP (peptide)
Human MPZ (human) [3]
  Count: 58
Human MPZ (human) [4]
  Count: 57

## TMASPAK (peptide)
Human MPZ (human) [3]
  Count: 58
Human MPZ (human) [4]
  Count: 52

## SAHAKHH (peptide)
Human MPZ (human) [3]
  Count: 52
Human MPZ (human) [4]
  Count: 51

## TESLFPH (peptide)
Human MPZ (human) [3]
  Count: 52
Human MPZ (human) [4]
  Count: 50

## DPITRLK (peptide)
Human MPZ (human) [3]
  Count: 93
Human MPZ (human) [4]
  Count: 92

## WLAAGSQ (peptide)
Human Nidogen-2 (human)
  Count: 6

## SHSPGNK (peptide)
Human MPZ (human) [3]
  Count: 79
Human MPZ (human) [4]
  Count: 67

## QTLRPKQ (peptide)
Human Nidogen-2 (human)
  Count: 6

## ALPLSAS (peptide)
Human MPZ (human) [3]
  Count: 197
Human MPZ (human) [4]
  Count: 196

## AGFPPNT (peptide)
[2]
  Count: 10

## GLTPKLF (peptide)
Human MPZ (human) [4]
  Count: 48

## AWSTSSV (peptide)
[1]
  Count: 12
[2]
  Count: 12

## HPSTWHK (peptide)
[2]
  Count: 18

## SHLASRP (peptide)
Human MPZ (human) [4]
  Count: 97

## LRPISHE (peptide)
[2]
  Count: 12

## VLTKPMP (peptide)
Human MPZ (human) [3]
  Count: 56
Human MPZ (human) [4]
  Count: 56

## RFELPAP (R3 Myelin PLP-binding peptide)
Human Myelin PLP [5]
  Count: 52
Human Myelin PLP [6]
  Count: 52

## VLKNNPT (peptide)
Human MPZ (human) [3]
  Count: 87
Human MPZ (human) [4]
  Count: 86

## LSIRGLT (peptide)
Human Nidogen-2 (human)
  Count: 6

## NDTKTPS (peptide)
[2]
  Count: 19

## LALYARM (R3 Myelin PLP-binding peptide)
Human Myelin PLP [5]
  Count: 44
Human Myelin PLP [6]
  Count: 44

## SPDRTSL (peptide)
[1]
  Count: 12
[2]
  Count: 12

## NPNWRTI (R3 Myelin PLP-binding peptide)
Human Myelin PLP [5]
  Count: 34
Human Myelin PLP [6]
  Count: 34

## KMAGHTV (peptide)
Human MPZ (human) [3]
  Count: 54
Human MPZ (human) [4]
  Count: 51

## RHNVEFS (R3 Myelin PLP-binding peptide)
Human Myelin PLP [5]
  Count: 42
Human Myelin PLP [6]
  Count: 42

## RVPHSRT (peptide)
Human MPZ (human) [4]
  Count: 49

## MQTQGRV (peptide)
[2]
  Count: 12

## QIGVLPS (peptide)
[2]
  Count: 11

## SVLRMLN
[7]
  Count: 16

## AITSRNA
[7]
  Count: 15

## SKSDAWR
[7]
  Count: 14

## ILLPSLN
[7]
  Count: 13
